Experimental data published in patent US20140087995A1 (published 2014).
Numbered stars: 1 amine (or outer) side, 2 acyl side, 3 side chain; on linkers, the order of the positions; unused ones are H or OH. Bridge positions count the residues as written; N and C are the ends. Side chains are listed from the residue outwards. Ends that are not written are not given here. * marks the point of attachment. C20 diacid = O=C(O)CCCCCCCCCCCCCCCCCCC(=O)*; γGlu = O=C(O)[C@H](CCC(=O)[*:2])N[*:1]

T1: human calcitonin receptor (human, UniProt P30988 25-474)
T1 sequence (looked up): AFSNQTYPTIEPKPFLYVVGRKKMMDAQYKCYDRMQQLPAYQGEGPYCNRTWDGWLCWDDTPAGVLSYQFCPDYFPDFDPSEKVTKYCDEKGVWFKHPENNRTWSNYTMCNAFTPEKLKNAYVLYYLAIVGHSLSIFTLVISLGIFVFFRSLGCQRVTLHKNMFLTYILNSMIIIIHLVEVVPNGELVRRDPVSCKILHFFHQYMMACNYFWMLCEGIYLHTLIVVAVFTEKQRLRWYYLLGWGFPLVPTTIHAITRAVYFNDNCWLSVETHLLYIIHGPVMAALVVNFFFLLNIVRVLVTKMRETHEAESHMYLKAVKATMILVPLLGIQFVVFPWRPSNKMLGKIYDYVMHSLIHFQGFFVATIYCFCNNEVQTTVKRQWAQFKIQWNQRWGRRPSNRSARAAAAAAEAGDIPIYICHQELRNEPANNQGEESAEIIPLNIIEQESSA

T2: human amylin receptor (amylin 3(a) receptor: human calcitonin receptor plus RAMP-3) (human, UniProt P30988 25-474; O60896 24-148, limits assumed)
T2 sequence (looked up) 1: T1 sequence (looked up)
T2 sequence (looked up) 2: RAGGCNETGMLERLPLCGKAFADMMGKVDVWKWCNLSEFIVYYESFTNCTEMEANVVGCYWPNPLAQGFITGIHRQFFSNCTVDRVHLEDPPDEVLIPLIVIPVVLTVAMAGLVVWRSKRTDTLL

B1: N^ε1-[(4S)-4-carboxy-4-[[(4S)-4-carboxy-4-(19-carboxynonadecanoylamino)butanoyl]amino]butanoyl]-[Asp14,Arg17,Pro22,Pro26,Asp35]-h-amylin (peptide)
peptide: K([γGlu-γGlu-C20 diacid])CNTATCATQRLADFLRHSSNPFGAPLSSTNVGSDTY-NH2
modifications: disulfide 2-7; N-terminus assumed
SMILES: CC(C)C[C@H](NC(=O)[C@H](CCCNC(=N)N)NC(=O)[C@H](CCC(N)=O)NC(=O)[C@@H](NC(=O)[C@H](C)NC(=O)[C@@H]1CSSC[C@H](NC(=O)[C@@H](N)CCCCNC(=O)CC[C@H](NC(=O)CC[C@H](NC(=O)CCCCCCCCCCCCCCCCCCC(=O)O)C(=O)O)C(=O)O)C(=O)N[C@@H](CC(N)=O)C(=O)N[C@@H]([C@@H](C)O)C(=O)N[C@@H](C)C(=O)N[C@@H]([C@@H](C)O)C(=O)N1)[C@@H](C)O)C(=O)N[C@@H](C)C(=O)N[C@@H](CC(=O)O)C(=O)N[C@@H](Cc1ccccc1)C(=O)N[C@@H](CC(C)C)C(=O)N[C@@H](CCCNC(=N)N)C(=O)N[C@@H](Cc1c[nH]cn1)C(=O)N[C@@H](CO)C(=O)N[C@@H](CO)C(=O)N[C@@H](CC(N)=O)C(=O)N1CCC[C@H]1C(=O)N[C@@H](Cc1ccccc1)C(=O)NCC(=O)N[C@@H](C)C(=O)N1CCC[C@H]1C(=O)N[C@@H](CC(C)C)C(=O)N[C@@H](CO)C(=O)N[C@@H](CO)C(=O)N[C@H](C(=O)N[C@@H](CC(N)=O)C(=O)N[C@H](C(=O)NCC(=O)N[C@@H](CO)C(=O)N[C@@H](CC(=O)O)C(=O)N[C@H](C(=O)N[C@@H](Cc1ccc(O)cc1)C(N)=O)[C@@H](C)O)C(C)C)[C@@H](C)O
notes: Synthetic acylated analogue of human amylin; also called compound 3
B2: N{Alpha-1}-[(4S)-4-carboxy-4-(19-carboxynonadecanoylamino)butanoyl]-[Glu14,Arg17,Pro21,Pro27,Lys34]-h-amylin (peptide)
peptide: {C20 diacid-γGlu}-KCNTATCATQRLAEFLRHSSPNFGAIPSSTNVGKNTY-NH2
modifications: disulfide 2-7
SMILES: CC[C@H](C)[C@H](NC(=O)[C@H](C)NC(=O)CNC(=O)[C@H](Cc1ccccc1)NC(=O)[C@H](CC(N)=O)NC(=O)[C@@H]1CCCN1C(=O)[C@H](CO)NC(=O)[C@H](CO)NC(=O)[C@H](Cc1c[nH]cn1)NC(=O)[C@H](CCCNC(=N)N)NC(=O)[C@H](CC(C)C)NC(=O)[C@H](Cc1ccccc1)NC(=O)[C@H](CCC(=O)O)NC(=O)[C@H](C)NC(=O)[C@H](CC(C)C)NC(=O)[C@H](CCCNC(=N)N)NC(=O)[C@H](CCC(N)=O)NC(=O)[C@@H](NC(=O)[C@H](C)NC(=O)[C@@H]1CSSC[C@H](NC(=O)[C@H](CCCCN)NC(=O)CC[C@H](NC(=O)CCCCCCCCCCCCCCCCCCC(=O)O)C(=O)O)C(=O)N[C@@H](CC(N)=O)C(=O)N[C@@H]([C@@H](C)O)C(=O)N[C@@H](C)C(=O)N[C@@H]([C@@H](C)O)C(=O)N1)[C@@H](C)O)C(=O)N1CCC[C@H]1C(=O)N[C@@H](CO)C(=O)N[C@@H](CO)C(=O)N[C@H](C(=O)N[C@@H](CC(N)=O)C(=O)N[C@H](C(=O)NCC(=O)N[C@@H](CCCCN)C(=O)N[C@@H](CC(N)=O)C(=O)N[C@H](C(=O)N[C@@H](Cc1ccc(O)cc1)C(N)=O)[C@@H](C)O)C(C)C)[C@@H](C)O
notes: Synthetic acylated analogue of human amylin; also called compound 36

Key:
[1] = target: T1, human calcitonin receptor; test: cell-based or functional assay
[2] = target: T2, human amylin receptor (amylin 3(a) …); test: cell-based or functional assay

| Binder | hCTR funct. EC50 [1] [pM] | Ratio hCT/hAmylin funct. [2] [ratio] | hAmylin-R funct. EC50 [2] [pM] |
| --- | --- | --- | --- |
| B1 | 1380 | 6.7 | 205 |
| B2 | 1280 | 6.8 | 189 |
